Laboratory results reported in publication PMC9723961 (Journal for Immunotherapy of Cancer, 2022).

Tests used:
Recombinant CD73-His [1] = target: T1, Recombinant CD73-His (human, UniProt P21589); experiment: cryo-EM structure
Recombinant CD73-His [2] = target: T1, Recombinant CD73-His; experiment: BLI
cryo-EM structure = target: the molecule itself; experiment: cryo-EM structure

stoichiometry N (Recombinant CD73-His [1])	Kd (Recombinant CD73-His [2])	Binder	binding result (cryo-EM structure)
2 antibodies per CD73 homodimer	200 pM	Mupadolimab (antibody, V domains shown) VH: QVQLVQSGAEVEKPGASVKVSCKASGYTFTSYWITWVRQAPGQGLEWMGDIYPGSGNTNYNEKFKTRVTITADKSTSTAYMELSSLRSEDTAVYYCAKEGGLTTEDYALDYWGQGTLVTVSS VL: EIVLTQSPATLSLSPGERATLSCRASKNVSTSGYSYMHWYQQKPGQAPRLLIYLASNLESGIPPRFSGSGYGTDFTLTINNIESEDAAYYFCQHSRELPFTFGQGTKVEIK	–
–	–	Recombinant CD73-His (enzyme, human, UniProt P21589 27-549, looked up) WELTILHTNDVHSRLEQTSEDSSKCVNASRCMGGVARLFTKVQQIRRAEPNVLLLDAGDQYQGTIWFTVYKGAEVAHFMNALRYDAMALGNHEFDNGVEGLIEPLLKEAKFPILSANIKAKGPLASQISGLYLPYKVLPVGDEVVGIVGYTSKETPFLSNPGTNLVFEDEITALQPEVDKLKTLNVNKIIALGHSGFEMDKLIAQKVRGVDVVVGGHSNTFLYTGNPPSKEVPAGKYPFIVTSDDGRKVPVVQAYAFGKYLGYLKIEFDERGNVISSHGNPILLNSSIPEDPSIKADINKWRIKLDNYSTQELGKTIVYLDGSSQSCRFRECNMGNLICDAMINNNLRHTDEMFWNHVSMCILNGGGIRSPIDERNNGTITWENLAAVLPFGGTFDLVQLKGSTLKKAFEHSVHRYGQSTGEFLQVGGIHVVYDLSRKPGDRVVKLDVLCTKCRVPSYDPLKMDEVYKVILPNFLANGGDGFQMIKDELLRHDSGDQDINVVSTYISKMKVIYPAVEGRIKFS	binds
